Where “and” joins values, the source holds several entries; their conditions need not be identical. Equal values may be shown once. Read-outs that look alike come from different tables or passages of the source. Marks after values point to notes of the source that are not given here.
Assays:
[1] = Activity of crude culture supernatants from bioreactor; format: biochemical; conditions: pNP-dodecanoate
[2] = Specific activity of purified enzymes (standard esterase assay); format: biochemical
Method: In summary, using different techniques for enzyme purification, pure enzyme preparations were obtained and tested for their activity towards a standard esterase substrate, pNP-palmitate. Enzymatic activities of the purified variants are summarized below:
(§1) Esterase activity was determined by monitoring the formation of para-nitrophenol (pNP) at 410 nm from various pNP-esters using a Beckman UV spectrophotometer (model DU 640). Substrates were completely dissolved in 2-propanol (8 mM) and were then added to 50 mM Tris/HCl buffer pH 8.0 to give a final substrate concentration of 0.8 mM. The reaction (1 mL) was started by adding an appropriate amount of enzyme. One enzyme unit (U) was defined as the amount of enzyme that produced 1 μmol of product (pNP) per min; specific activity was expressed as U/mg protein. A molar extinction coefficient of 15 mM^−1 cm^−1 was used for the calculation.

[3] = Circular dichroism spectroscopy, melting temperature and refolding; format: physicochemical
Method: CD spectra were recorded using a Jasco™ J-815 spectrometer operating with the Spectra™ Manager software. Temperature was controlled using a Jasco™ PFD-452S peltier unit. Previously purified protein solutions were adjusted to 0.15 mg/mL (if quantities allowed for) and CD spectra were recorded between 190 and 250 nm using a Quartz cuvette (ID=0.1 cm). Blanks containing buffer only were prepared and used as baseline. Temperature dependent protein unfolding was monitored at 222 nm with thermo profiles ranging from 20 up to 90° C. (2° C. min-1). Samples were kept for 5 min at the respective maximum temperature and protein refolding was monitored using the same conditions as above reversing the thermo profiles. Thermodynamic parameters (Tm, ΔH, ΔS, ΔG) for the folding/unfolding process, if applicable, were calculated using the Spectra™ Manager software.

[4] = Enzyme substrate profiles, esterase assays; format: biochemical; conditions: highest activity towards a specific substrate set to 100%
Method: as §1

[5] = Enzymatic activity in the presence of organic solvents; format: biochemical; conditions: buffer only = 100%
Method: Enzyme activity in various organic solvents was studied over a concentration range of 1-30% at room temperature. pNP-palmitate was completely dissolved in 2-propanol (8 mM) and then added to 50 mM Tris/HCl buffer pH 8.0 containing up to 30% organic solvent to give a final substrate concentration of 0.8 mM. The reaction was started by addition of enzyme and the formation of pNP was assayed as described above in Example 20.1.

pH dependence of enzymes = format: biochemical; conditions: for Relative activity (%): highest activity = 100%
Method: The influence of different pH values (from 5.5 to 11) on the activities of the purified enzymes was examined in three buffer systems (sodium acetate, sodium phosphate, and Tris-HCl) at room temperature using pNP-palmitate (see esterase assay in Example 20.1) as a substrate at a final substrate concentration of 0.8 mM.

[6] = Stability in the presence of hydrogen peroxide; format: physicochemical
Method: as §1
Purified cutinases were incubated at room temperature in the presence of 0, 30, 100, 300, 1500, and 3000 ppm of hydrogen peroxide. Residual enzyme activity was assayed (see Example 20.1) after 1, 2, 3, and 7 days of incubation.

[7] = format: biochemical, Petromyces albertensis; conditions: for Residual ochratoxin A (%): 5 ppm Ochratoxin A, 37° C., relative to incubation without enzyme
Method: The enzymes purified in Example 18 were tested for their ability to degrade the mycotoxin Ochratoxin A. In general, the mycotoxin was incubated with different concentrations of the enzyme, and the remaining mycotoxin concentration, as well the respective degradation products, were monitored by LC-MS over time (where possible/applicable).
Reactions were performed in 1 mL volumes in glass HPLC vials comprising the mycotoxin to be analyzed and the enzyme to be tested. For Ochratoxin A (Petromyces albertensis, 01877 Sigma), 50 μL of a 100 ppm stock solution in methanol (final concentration of 5 ppm) was added to 910 μL of distilled water and 40 μL of the enzyme to be tested. In control reactions, the volume of enzyme was substituted with distilled water. The reactions were incubated in an Eppendorf thermomixer at 37° C. with shaking at 750 rpm. 100 μL samples were withdrawn at 1, 4 and 24 h for chromatographic analysis.
Mycotoxin analysis was carried out using a Shimadzu LCMS-2020 equipped with a UV/vis detector. Chromatographic separation of 10 μL injected sample was carried out at 30° C. on a Kinetex 2.6 μm XB-C18 column 100 Å (50×2.1 mm) using a binary gradient. For Ochratoxin A, eluent A consisted of water and eluent B consisted of acetonitrile and the UV detection wavelength was 360 nm.
The five enzymes tested were screened for their ability to degrade 5 ppm (5,000 ppb) Ochratoxin A at 37° C.

B1: CfCUT: mature wild-type cutinase from Cellulomonas flavigena, SEQ ID NO: 28 (protein, listed as Cellulomonas flavigena)
chain: APACPDVELVFARGTGEAAGLGIVGRPLERALAAELPGRTVVATAVDYAASSSQASAGPGSGDMVAKVRSRAAACPGTQFVLGGYSQGATVTDLALGIRTGVTAGTALPEDLAARVAAVVVYGNPLGLTRRTIAQAAPAFATRTVEYCNAGDPVCEPGGGRFTAHITYATNGTVLEGARFAAARVTAPAPTPTPGPTGTPAPVPSAEPTPAPGDTCVTASSLQHVRDGRAYPLWMRTYARGSGDPLGVLSSRTVVSLQADGTDTWRKVAAC
For B1, the “activity of crude culture supernatant” value [1] was 0.5 U/mL, the “Enzymatic activity of the purified variant” value ([2]; pNP-palmitate) was 26 ± 1 U/mg and the “Spec. Act. (U/mg)” value ([2]; towards pNP-palmitate (standard assay)) was 26 ± 1 U/mg. The refolding ([3]; CD at 222 nm) was “did not show any refolding”, the “melting temperature (Tm)” value ([3]; CD at 222 nm, unfolding) was 65.2 °C and the “Tm (° C.)” value ([3]; estimated using CD-spectroscopy) was 65 ± 1 °C. The “Relative activity, pNP-acetate (C2)” value [4] was 6%, the “Relative activity, pNP-butyrate (C4)” value [4] was 93 ± 8% and the “Relative activity, pNP-caprylate (C8)” value [4] was 11 ± 2%. For the same molecule, the “Relative activity, pNP-decanoate (C10)” value [4] was 40 ± 5%, the “Relative activity, pNP-myristate (C14)” value [4] was 47 ± 8% and the “Relative activity, pNP-palmitate (C16)” value [4] was 100* %. For the same molecule, the “Relative enzymatic activity (%)” value ([5]; 2-Propanol 5% (v/v)) was 70 ± 3%, the “Relative enzymatic activity (%)” value ([5]; 2-Propanol 10% (v/v)) was 17 ± 8% and the “Relative enzymatic activity (%)” value ([5]; Acetone 1% (v/v)) was 92 ± 9%. For the same molecule, the “Relative enzymatic activity (%)” value ([5]; Acetone 5% (v/v)) was 95 ± 1%, the “Relative enzymatic activity (%)” value ([5]; Acetone 10% (v/v)) was 52 ± 5% and the “Relative enzymatic activity (%)” value ([5]; Dimethyl sulfoxide (DMSO) 10% (v/v)) was 105 ± 11%. The “Relative enzymatic activity (%)” value ([5]; Dimethyl sulfoxide (DMSO) 20% (v/v)) was 107 ± 1%, the “Relative enzymatic activity (%)” value ([5]; Dimethyl sulfoxide (DMSO) 30% (v/v)) was 57 ± 15% and the “Relative enzymatic activity (%)” value ([5]; Dimethylformamide (DMF) 5% (v/v)) was 101 ± 17%. For the same molecule, the “Relative enzymatic activity (%)” value ([5]; Methanol 10% (v/v)) was 115 ± 11%, the “Relative enzymatic activity (%)” value ([5]; Methanol 20% (v/v)) was 62 ± 3% and the pH opt. (pH dependence of enzymes) was 9.5. The “Relative activity (%)” value (pH dependence of enzymes; pH 6.5, sodium phosphate buffer) was 13 ± 2%, the “Relative activity (%)” value (pH dependence of enzymes; pH 7.0, sodium phosphate buffer) was 40 ± 4% and the “Relative activity (%)” value (pH dependence of enzymes; pH 7.5, sodium phosphate buffer) was 65 ± 5%. The “Relative activity (%)” value (pH dependence of enzymes; pH 8.0, Tris/HCl) was 62 ± 2%, the “Relative activity (%)” value (pH dependence of enzymes; pH 8.5, Tris/HCl) was 85 ± 6% and the “Relative activity (%)” value (pH dependence of enzymes; pH 9.0, Tris/HCl) was 93 ± 9%. The “Relative activity (%)” value (pH dependence of enzymes; pH 9.5, Tris/HCl) was 100* %, the “Relative activity (%)” value (pH dependence of enzymes; pH 10, Tris/HCl) was 31 ± 1% and the “Relative activity (%) after exposure to hydrogen peroxide” value (“Relative activity (%) after exposure” for short) ([6]; H2O2 30 ppm, Day 0) was 101 ± 22%. For the same molecule, the “Relative activity (%) after exposure” value ([6]; H2O2 30 ppm, Day 1) was 89 ± 8%, the “Relative activity (%) after exposure” value ([6]; H2O2 30 ppm, Day 2) was 82 ± 8% and the “Relative activity (%) after exposure” value ([6]; H2O2 30 ppm, Day 3) was 76 ± 6%. For the same molecule, the “Relative activity (%) after exposure” value ([6]; H2O2 30 ppm, Day 7) was 72 ± 7%, the “Relative activity (%) after exposure” value ([6]; H2O2 100 ppm, Day 0) was 92 ± 5% and the “Relative activity (%) after exposure” value ([6]; H2O2 100 ppm, Day 1) was 114 ± 15%. For the same molecule, the “Relative activity (%) after exposure” value ([6]; H2O2 100 ppm, Day 2) was 118 ± 15%, the “Relative activity (%) after exposure” value ([6]; H2O2 100 ppm, Day 3) was 92 ± 11% and the “Relative activity (%) after exposure” value ([6]; H2O2 100 ppm, Day 7) was 94 ± 7%. For the same molecule, the “Relative activity (%) after exposure” value ([6]; H2O2 300 ppm, Day 0) was 93 ± 12%, the “Relative activity (%) after exposure” value ([6]; H2O2 300 ppm, Day 1) was 106 ± 20% and the “Relative activity (%) after exposure” value ([6]; H2O2 300 ppm, Day 2) was 118 ± 12%. For the same molecule, the “Relative activity (%) after exposure” value ([6]; H2O2 300 ppm, Day 3) was 102 ± 14%, the “Relative activity (%) after exposure” value ([6]; H2O2 300 ppm, Day 7) was 106 ± 13% and the “Relative activity (%) after exposure” value ([6]; H2O2 1,500 ppm, Day 0) was 126 ± 1%. For the same molecule, the “Relative activity (%) after exposure” value ([6]; H2O2 1,500 ppm, Day 1) was 106 ± 12%, the “Relative activity (%) after exposure” value ([6]; H2O2 1,500 ppm, Day 2) was 109 ± 2% and the “Relative activity (%) after exposure” value ([6]; H2O2 1,500 ppm, Day 3) was 95 ± 4%. The “Relative activity (%) after exposure” value ([6]; H2O2 1,500 ppm, Day 7) was 54 ± 16%, the “Relative activity (%) after exposure” value ([6]; H2O2 3,000 ppm, Day 0) was 128% and 128 ± 18% and the “Relative activity (%) after exposure” value ([6]; H2O2 3,000 ppm, Day 1) was 115 ± 2%. The “Relative activity (%) after exposure” value ([6]; H2O2 3,000 ppm, Day 2) was 99 ± 23%, the “Relative activity (%) after exposure” value ([6]; H2O2 3,000 ppm, Day 3) was 60 ± 6% and the “Relative activity (%) after exposure” value ([6]; H2O2 3,000 ppm, Day 7) was 35% and 35 ± 1%. The “Residual ochratoxin A (%)” value ([7]; 1 h) was 11%, the “Residual ochratoxin A (%)” value ([7]; 4 h) was 2% and the “Residual ochratoxin A (%)” value ([7]; 24 h) was 0%. The “Ochratoxin A Degradation per U and h” value ([7]; per 1 U of enzyme (pNP standard test) and hour at 37° C.) was 3 µmol.
